In patent EP1906184A1 (KYOWA HAKKO KOGYO CO., LTD., dated 2008):
Numbering of substitutions follows the chain as printed.

B1: anti-human VEGF receptor Flt-1 mouse monoclonal antibody KM1750 (antibody, V domains shown)
VH: QAFLQQSGAELVRPGASVKMSCKASGYTFINYNMHWVKQTPRQGLEWIGAIFPGNGFTSYNQKFKGKATLTVDKSSSTVYMQLRSLTSEDSAVYFCARDGDYYFDYWGQGTTLTVSS
VL: QIVLTQSPAIMSASLGEEITLTCSASSSVSYMHWYQQKSGTSPKLLIYRTSNLASGVPFRFSGSGSGTFYSLTISSVEAEDAADYYCHQWSMYTFGGGTKLEIK
notes: Mouse IgG2b from hybridoma KM1750 (FERM BP-5700)
B2: anti-human VEGF receptor Flt-1 mouse monoclonal antibody KM1732 (antibody, V domains shown)
VH: QGQMQQSGAELVKPGASVKLSCKPSGFTFSSNYISWLKQKPGQSLEWIAWIYAGTGDASYNQKFTAKAHVTVDTSSSTAYMQLSSLTTEDSAIYYCARHGGDGYWFAYWGQGTLVTVSA
VL: QLVLTQSPAIMSASQGEKVTMTCSASSSVSYMHWYQQKSGTSPKRWIYDTSKLPSGVPARFSGSGSGTSYSLTISSMEAEDAATYYCQQWSSNPPTFGAGTKLELK
notes: Mouse IgG1 from hybridoma KM1732 (FERM BP-5698); also called anti-human Flt-1 monoclonal antibody KM1732
B3: anti-human VEGF receptor Flt-1 human CDR-grafted antibody KM8550 (antibody, V domains shown)
VH: QVQLVQSGAEVKKPGASVKVSCKASGYTFINYNMHWVRQAPGQGLEWMGAIFPGNGFTSYNQKFKGRVTITVDKSTSTAYMELSSLRSEDTAVYYCARDGDYYFDYWGQGTLVTVSS
VL: DIQMTQSPSSLSASVGDRVTITCSASSSVSYMHWYQQKPGKAPKLLIYRTSNLASGVPSRFSGSGSGTDFTLTISSLQPEDFATYYCHQWSMYTFGQGTKVEIK
notes: Human CDR-grafted IgG; also called 1750HV0 + 1750LV0(I); pKANTEX1750HV0LV0(I)
B4: anti-human VEGF receptor Flt-1 human CDR-grafted antibody KM8551 (antibody, V domains shown)
VH: B3 VH
VL: DIVMTQSPDSLAVSLGERATINCSASSSVSYMHWYQQKPGQPPKLLIYRTSNLASGVPDRFSGSGSGTDFTLTISSLQAEDVAVYYCHQWSMYTFGQGTKVEIK
notes: Human CDR-grafted IgG; also called 1750HV0 + 1750LV0(IV); pKANTEX1750HV0LV0(IV)
B5: anti-human VEGF receptor Flt-1 human CDR-grafted antibody KM8555 (antibody, V domains shown)
VH: B3 VH with E82Q, S84R, Y95F
VL: B3 VL with D17E, R18E, D69F, F70Y
notes: Human CDR-grafted IgG with modified FR in VH and VL; also called 1750HV3 + 1750LV4; pKANTEX1750HV3LV4
B6: anti-human VEGF receptor Flt-1 human CDR-grafted antibody KM8552 (antibody, V domains shown)
VH: B3 VH with E82Q, S84R, Y95F
VL: B3 VL
notes: Human CDR-grafted IgG with modified FR in VH; also called 1750HV3 + 1750LV0(I); pKANTEX1750HV3LV0(I)
B7: anti-human VEGF receptor Flt-1 human CDR-grafted antibody KM8554 (antibody, V domains shown)
VH: B3 VH
VL: B3 VL with D17E, R18E, D69F, F70Y
notes: Human CDR-grafted IgG with modified FR in VL; also called 1750HV0 + 1750LV4; pKANTEX1750HV0LV4
B8: anti-human VEGF receptor Flt-1 human CDR-grafted antibody KM8553 (antibody, V domains shown)
VH: B3 VH with E82Q, S84R, Y95F
VL: B4 VL
notes: Human CDR-grafted IgG with modified FR in VH; also called 1750HV3 + 1750LV0(IV); pKANTEX1750HV3LV0(IV)
B9: anti-human VEGF receptor Flt-1 human chimeric antibody KM2550 (antibody, V domains shown)
VH: B1 VH
VL: B1 VL
B10: anti-human VEGF receptor Flt-1 human chimeric antibody KM2532 (antibody, V domains shown)
VH: B2 VH
VL: B2 VL

These binders were tested against T1, soluble human VEGF receptor KDR 7N (human, UniProt P35968 20-757) (assay: ELISA, receptor coated at 4 µg/ml).
T1 construct: range 1-738; The range 1-738 counts on the mature protein, not on the precursor; Expressed in High Five insect cells (purity 70 to 80%); not shown: two amino acid residues derived from a linker
T1 sequence (P35968 20-757): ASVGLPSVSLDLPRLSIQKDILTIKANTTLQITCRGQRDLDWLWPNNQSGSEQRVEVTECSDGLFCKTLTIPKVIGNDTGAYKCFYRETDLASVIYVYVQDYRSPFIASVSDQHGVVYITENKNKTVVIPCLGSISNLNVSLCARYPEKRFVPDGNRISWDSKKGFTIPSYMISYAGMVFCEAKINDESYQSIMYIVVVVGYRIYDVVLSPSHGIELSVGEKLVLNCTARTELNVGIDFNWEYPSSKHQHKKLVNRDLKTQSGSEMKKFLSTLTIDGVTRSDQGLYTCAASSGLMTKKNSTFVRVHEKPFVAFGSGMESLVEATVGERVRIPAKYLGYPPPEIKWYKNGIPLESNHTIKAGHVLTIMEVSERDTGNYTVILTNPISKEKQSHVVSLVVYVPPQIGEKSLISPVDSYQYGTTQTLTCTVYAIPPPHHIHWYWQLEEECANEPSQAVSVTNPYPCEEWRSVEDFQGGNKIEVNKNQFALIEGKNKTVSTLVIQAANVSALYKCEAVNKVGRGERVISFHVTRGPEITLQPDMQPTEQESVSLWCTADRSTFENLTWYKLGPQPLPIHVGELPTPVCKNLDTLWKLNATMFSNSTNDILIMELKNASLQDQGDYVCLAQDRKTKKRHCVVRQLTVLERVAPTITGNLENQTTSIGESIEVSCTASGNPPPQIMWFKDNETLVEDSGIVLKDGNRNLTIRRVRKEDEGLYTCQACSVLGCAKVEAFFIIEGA

binding result	Binder
no binding (tested: 0.1 µg/ml)	B1
no binding (tested: 0.1 µg/ml)	B2

What follows are binders tested against T1, soluble human VEGF receptor KDR 7N (assay: ELISA, receptor coated at 10 µg/ml (3-fold dilutions)).

binding result	Binder
no binding (tested: 5 µg/ml)	B3
no binding (tested: 5 µg/ml)	B4
no binding (tested: 5 µg/ml)	B5
no binding (tested: 5 µg/ml)	B6
no binding (tested: 5 µg/ml)	B7
no binding (tested: 5 µg/ml)	B8

The binders below were run against T1, soluble human VEGF receptor KDR 7N (assay: ELISA, receptor coated at 4 µg/ml, antibody concentration varied).

binding result	Binder
no binding (tested: 0.0152 to 100 ng/ml)	B9
no binding (tested: 0.0152 to 100 ng/ml)	B10
